Measured values as given in paper PMC5021521, “Coordinated recruitment of Spir actin nucleators and myosin V motors to Rab11 vesicle membranes” (eLife, 2016).
“Also recorded” adds a separate entry of the source. Blank lines part the entries; values can stand above or below the molecule they belong to. Ends that are not written are not given here. * marks the point of attachment. 5FAM = O=C1OC2(c3ccc(O)cc3Oc3cc(O)ccc32)c2ccc(C(=O)*)cc21; Ahx = NCCCCCC(=O)O

Tests used:
[1] = system: GFP-MyoVb-GTD; test: Co-immunoprecipitation from HEK293 cells; assay type: binding, Homo sapiens; details: anti-Myc co-IP, HEK293, immunoblot
Method: (§1) HEK293 cells were transfected with expression vectors encoding Myc-tagged Spir proteins and GFP-tagged myosin Va and myosin Vb fragments. 48 hr post transfection, cells were lysed in lysis buffer (25 mM Tris-HCl pH 7.4, 150 mM NaCl, 5 mM MgCl2, 10% (v/v) glycerol, 0.1% (v/v) Nonidet P-40, 1 mM Phenylmethylsulfonylfluorid (PMSF; Sigma-Aldrich), protease inhibitor cocktail (complete mini, EDTA-free; Roche, Penzberg, Germany)) and centrifuged at 20,000 x g, 4°C, 20 min to remove insoluble debris. The clarified supernatant was incubated with 4 µg anti-c-Myc antibody (9E10, mouse monoclonal; Santa Cruz Biotechnology; RRID: AB_627268) for 1 hr on ice. Subsequently, 40 µl Protein G-Agarose beads (1:1 suspension; Roche) were added and incubated for 2 hr at 4°C on a rotating wheel. Beads were washed with pulldown buffer (25 mM Tris-HCl pH 7.4, 150 mM NaCl, 5 mM MgCl2, 10% (v/v) glycerol, 0.1% (v/v) Nonidet P-40). Bound proteins were eluted with 1x Laemmli buffer and denatured for 10 min at 95°C, then analyzed by immunoblotting.

[2] = system: GST-Rab11a-Q70L; test: GST-pulldown from HEK293 lysates; assay type: binding; details: N = 2
Method: HEK293 cells were co-transfected with expression vectors encoding Myc-Spir-2-FL, mStrawberry-FMN2-FH2-FSI, eGFP-MyoVa-D-FL and eGFP-MyoVa-D-Q1753R, respectively. 24 hr post transfection, cells were lysed in lysis buffer (25 mM Tris-HCl pH 7.4, 150 mM NaCl, 5 mM MgCl2, 10% (v/v) glycerol, 0.1% (v/v) Nonidet P-40, 1 mM PMSF, protease inhibitor cocktail) and centrifuged at 20,000 x g, 4°C, 20 min to remove insoluble debris. For GST-pulldown assays 65 µg GST-Rab11a-Q70L protein (25 µg GST control) was coupled to GSH-Sepharose 4B beads (1:1 suspension) for 1 hr, 4°C on a rotating wheel. Beads were washed twice with pulldown buffer (25 mM Tris-HCl pH 7.4, 150 mM NaCl, 5 mM MgCl2, 10% (v/v) glycerol, 0.1% (v/v) Nonidet P-40) and subsequently incubated with the cell lysates for 2 hr at 4°C on a rotating wheel. Beads were washed four times with pulldown buffer and bound proteins were eluted with 1x Laemmli buffer and denatured at 95°C for 10 min, then were analyzed by immunoblotting.

[3] = system: GFP-MyoVa-GTD; test: Co-immunoprecipitation from HEK293 cells; assay type: binding, Mus musculus; details: anti-Myc co-IP, HEK293, immunoblot, N = 2
Method: as §1

[4] = system: Spir-1; test: GST-pulldown from mouse brain lysates; assay type: binding; details: 50 µg GST-fusion protein; immunoblot anti-Spir-1; N = 3
Method: Wild-type C57BL/6 (Jackson Laboratory, Bar Harbor, ME, USA) mice were killed by cervical dislocation. The brain was isolated immediately, washed in cold PBS and lysed in lysis buffer (25 mM Tris-HCl pH 7.4, 150 mM NaCl, 5 mM MgCl2, 10% (v/v) glycerol, 0.1% (v/v) Nonidet P-40, 0.1 M NaF, 1 mM Na3VO4, 1 mM PMSF, protease inhibitor cocktail) using a TissueRuptor (Qiagen). Following incubation on ice for 45 min, the lysate was centrifuged at 20,000 x g, 4°C until the supernatant was clear. Brain lysates were incubated with GSH-Sepharose 4B beads, loaded with 50 µg GST-fusion proteins as indicated, for 2.5 hr at 4°C on a rotating wheel. Beads were washed five times with pulldown buffer and bound proteins were eluted by 1x Laemmli buffer and denatured at 95°C for 10 min. Pulled proteins were analyzed by immunoblotting.

[5] = target: GST-MyoVa-GTD (mouse); test: pull-down + other fluorescence titration; quantitative GST-pulldown: increasing GST-MyoVa/b-GTD on beads, 100 nM His6-mCherry-Spir-2-linker, 1x PBS with 50 mM NaCl; mCherry fluorescence left in the supernatant at 20°C; single-site fit
[6] = target: T1, GST-MyoVb-GTD (human, UniProt Q9ULV0 1467-1848); test: as above; details: both partners purified
T1 construct: myosin Vb globular tail domain, human, aa 1467-1848; also called GST-hs-MyoVb-GTD; pGex-4T1-NTEV-hs-MyoVb-GTD; source: E. coli Rosetta or Rosetta (DE3) pLysS, purified (GSH-Sepharose 4B, Superdex 200)
T1 sequence (looked up): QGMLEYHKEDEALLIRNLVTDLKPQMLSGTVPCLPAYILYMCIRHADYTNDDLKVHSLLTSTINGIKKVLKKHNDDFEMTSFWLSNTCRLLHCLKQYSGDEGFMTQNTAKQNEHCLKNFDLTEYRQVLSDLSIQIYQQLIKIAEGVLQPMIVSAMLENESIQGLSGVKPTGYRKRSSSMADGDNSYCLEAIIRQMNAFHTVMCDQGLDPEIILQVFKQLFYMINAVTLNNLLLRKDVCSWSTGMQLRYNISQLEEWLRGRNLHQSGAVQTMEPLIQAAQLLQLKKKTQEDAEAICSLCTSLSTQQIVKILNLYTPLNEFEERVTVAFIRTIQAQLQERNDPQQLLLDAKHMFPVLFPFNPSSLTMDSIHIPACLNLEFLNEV

[7] = target: T2, MyoVb-GTD (human, aa 1456-1848) (human, UniProt Q9ULV0 1456-1848); test: fluorescence polarisation; fluorescence anisotropy; 1 uM fluorescein-Spir-2-401-427 titrated with MyoVa-GTD or MyoVb-GTD (50 nM-5 uM); 25°C; 100 mM Tris-HCl pH 8.0, 150 mM NaCl, 2 mM MgCl2, 2 mM TCEP, 5% glycerol; details: both partners purified
T2 construct: myosin Vb globular tail domain, human, residues 1456-1848; Produced as in Pylypenko et al., 2013; also called hs-MyoVb-GTD; source: E. coli BL21(DE3) or BL21-CodonPlus-RILP, purified (HisTrap, rTEV, Superdex G200); not shown: His6, N-terminal, cleaved
T2 sequence (looked up): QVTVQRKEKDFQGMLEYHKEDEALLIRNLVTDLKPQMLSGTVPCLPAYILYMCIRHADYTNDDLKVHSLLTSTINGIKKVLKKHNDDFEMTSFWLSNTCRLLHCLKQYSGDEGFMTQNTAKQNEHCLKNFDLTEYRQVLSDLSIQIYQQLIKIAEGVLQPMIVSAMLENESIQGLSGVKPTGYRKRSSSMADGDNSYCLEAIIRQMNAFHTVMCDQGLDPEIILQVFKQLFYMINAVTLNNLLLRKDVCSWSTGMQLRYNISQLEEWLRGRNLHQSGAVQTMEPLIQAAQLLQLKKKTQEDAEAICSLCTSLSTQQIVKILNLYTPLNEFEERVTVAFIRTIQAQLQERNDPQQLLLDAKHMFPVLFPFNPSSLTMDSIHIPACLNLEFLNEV

[8] = target: T3, MyoVc-GTD (human, aa 1350-1742) (human, UniProt Q9NQX4 1350-1742); test: MST
T3 chain: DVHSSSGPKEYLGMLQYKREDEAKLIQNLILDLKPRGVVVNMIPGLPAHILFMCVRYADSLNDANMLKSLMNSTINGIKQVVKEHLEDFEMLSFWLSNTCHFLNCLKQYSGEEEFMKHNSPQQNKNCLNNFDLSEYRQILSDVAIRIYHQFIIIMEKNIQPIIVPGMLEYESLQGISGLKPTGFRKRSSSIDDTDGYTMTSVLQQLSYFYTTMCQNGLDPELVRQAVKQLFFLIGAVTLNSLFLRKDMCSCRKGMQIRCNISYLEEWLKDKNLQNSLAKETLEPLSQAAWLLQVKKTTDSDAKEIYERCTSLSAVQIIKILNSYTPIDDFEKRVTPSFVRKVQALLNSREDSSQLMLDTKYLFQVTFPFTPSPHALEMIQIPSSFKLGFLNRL

[9] = target: T4, MyoVc-GTD (human, aa 1350-1742) (human, UniProt Q9NQX4 1350-1742); test: MST; 500 nM fluorescein-Spir-2 peptide, MyoVc-GTD 97 uM to 2.96 nM; 21.5°C; 50 mM Tris pH 8.0, 250 mM NaCl, 2 mM MgCl2, 2 mM TCEP, 5% glycerol; details: both partners purified
T4 construct: myosin Vc globular tail domain, human, residues 1350-1742; also called hs-MyoVc-GTD; source: E. coli BL21(DE3) or BL21-CodonPlus-RILP, purified (HisTrap, rTEV, Superdex 200); not shown: His6, N-terminal, cleaved
T4 sequence (looked up): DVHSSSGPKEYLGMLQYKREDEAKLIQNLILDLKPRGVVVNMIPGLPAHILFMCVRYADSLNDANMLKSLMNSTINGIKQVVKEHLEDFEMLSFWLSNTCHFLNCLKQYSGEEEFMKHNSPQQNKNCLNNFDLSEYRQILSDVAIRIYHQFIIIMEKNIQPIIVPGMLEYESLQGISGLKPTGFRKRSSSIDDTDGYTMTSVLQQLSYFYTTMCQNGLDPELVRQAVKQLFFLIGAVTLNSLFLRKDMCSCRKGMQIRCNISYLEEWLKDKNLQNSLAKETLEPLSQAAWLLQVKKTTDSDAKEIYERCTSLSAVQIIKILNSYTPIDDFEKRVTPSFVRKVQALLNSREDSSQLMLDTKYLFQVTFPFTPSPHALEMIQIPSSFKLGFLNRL

[10] = system: Rab11a-Q70L; test: GST-pulldown with purified proteins, tripartite complex; assay type: binding, Homo sapiens; details: N = 3
Method: For GST-pulldown assays, 50 µg of GST-fusion protein was coupled to GSH-Sepharose 4B beads (1:1 suspension) for 1 hr at 4°C on a rotating wheel. Beads were washed twice with pulldown buffer and subsequently incubated with 20 µg His6-mCherry-fusion peptides for 2 hr, 4°C on a rotating wheel. In order to identify the tripartite Spir-2:MyoVa:Rab11a complex, 65 µg GST-Spir-2-GTBM-SB-FYVE was coupled to beads. Subsequently, beads were incubated with 40 µg MyoVa-GTD and 35 µg Rab11a-Q70L simultaneously for 2 hr. Beads were washed four times with pulldown buffer and bound proteins were eluted by 1x Laemmli buffer and denatured at 95°C for 10 min. Pulled proteins were analyzed by immunoblotting.

Molecule: Spir-2: Myc-hs-Spir2 aa 2 - 714, full-length (QRPRPRVLLKAPTLAEMEEMNTSEEEE)
- co-precipitation / interaction with MyoVb-GTD in words [1]: did interact with the GFP-MyoVb-GTD
- co-precipitation / interaction with MyoVb-GTD in words ([1]; listed as Myc-Spir-2): co-precipitation
- pulldown by GST-Rab11a-Q70L in words ([2]; HEK293 lysates over-expressing Myc-Spir-2, Straw-FMN2-FH2-FSI and GFP-MyoVa-FL): able to pull down Myc-Spir-2
- pulldown by GST-Rab11a-Q70L in words, with Q1753R mutant MyoVa ([2]; HEK293 lysates with GFP-MyoVa-Q1753R in place of GFP-MyoVa-FL): Only faint
- co-precipitation / interaction with MyoVa-GTD in words [3]: interacts
- co-precipitation / interaction with MyoVa-GTD in words ([3]; listed as Myc-Spir-2): co-precipitation

Molecule: GST-FMN2-eFSI: GST-mm-FMN2-eFSI aa 1523 - 1578, positive control ({GST}-EFSSDFKDAWKKENKLILQERVKEAEEVCRQKKGKSLYKVKPRHDSGIKAKISMKT) [reference compound]
- pulldown of endogenous Spir-1 in words [4]: able to pull endogenous Spir-1 from mouse brain lysates

B1: GST-MyoVb-GTD: GST-hs-MyoVb-GTD aa 1467 - 1848 (protein)
chain: QGMLEYHKEDEALLIRNLVTDLKPQMLSGTVPCLPAYILYMCIRHADYTNDDLKVHSLLTSTINGIKKVLKKHNDDFEMTSFWLSNTCRLLHCLKQYSGDEGFMTQNTAKQNEHCLKNFDLTEYRQVLSDLSIQIYQQLIKIAEGVLQPMIVSAMLENESIQGLSGVKPTGYRKRSSSMADGDNSYCLEAIIRQMNAFHTVMCDQGLDPEIILQVFKQLFYMINAVTLNNLLLRKDVCSWSTGMQLRYNISQLEEWLRGRNLHQSGAVQTMEPLIQAAQLLQLKKKTQEDAEAICSLCTSLSTQQIVKILNLYTPLNEFEERVTVAFIRTIQAQLQERNDPQQLLLDAKHMFPVLFPFNPSSLTMDSIHIPACLNLEFLNEV
modifications: left off: GST, end not stated, kept
- pulldown of endogenous Spir-1 in words [4]: able to pull endogenous Spir-1 from mouse brain lysates

- Kd [5]: 728 nM
- Kd [6]: ~377 nM
B2: His6-mCherry-Spir-2-linker (domain or fragment, human, UniProt Q8WWL2 361-519, looked up)
chain: GEGWAARGFGSLPCILNACSGDAKSTSCINLSVTDAGGSAQRPRPRVLLKAPTLAEMEEMNTSEEEESPCGEVTLKRDRSFSEHDLAQLRSEVASGLQSATHPPGGTEPPRPRAGSAHVWRPGSRDQGTCPASVSDPSHPLLSNRGSSGDRPEASMTPD
notes: Spir-2 central linker region, human, aa 361-519; also called His-mCherry-Spir2-linker; His6-mCherry-hs-Spir2-linker; source: E. coli (Rosetta or Rosetta (DE3) pLysS; BL21(DE3)), purified (Ni-NTA, Superdex 200); not shown: His6, N-terminal, kept; mCherry, N-terminal, kept

- binding result [7]: binds
- Kd [8]: 2880 nM
- binding result [9]: binds
B3: Fluorescein-Spir-2-GTBM peptide (peptide)
peptide: {5FAM-Ahx}-QRPRPRVLLKAPTLAEMEEMNTSEEEE
notes: also called Fluorescein-Spir2 peptide; fluorescein labeled Spir-2-401-427 peptide; source: synthetic peptide, bought: GenScript

B4: GST-Spir-2-GTBM-SB-FYVE: GST-hs-Spir2-GTBM-SB-FYVE aa 361 - 714 (protein)
chain: GEGWAARGFGSLPCILNACSGDAKSTSCINLSVTDAGGSAQRPRPRVLLKAPTLAEMEEMNTSEEEESPCGEVTLKRDRSFSEHDLAQLRSEVASGLQSATHPPGGTEPPRPRAGSAHVWRPGSRDQGTCPASVSDPSHPLLSNRGSSGDRPEASMTPDAKHLWLEFSHPVESLALTVEEVMDVRRVLVKAEMEKFLQNKELFSSLKKGKICCCCRAKFPLFSWPPSCLFCKRAVCTSCSIKMKMPSKKFGHIPVYTLGFESPQRVSAAKTAPIQRRDIFQSLQGPQWQSVEEAFPHIYSHGCVLKDVCSECTSFVADVVRSSRKSVDVLNTTPRRSRQTQSLYIPNTRTLDFK
modifications: left off: GST, end not stated, kept
- pulldown of Rab11a-Q70L in words ([10]; in the presence of MyoVa-GTD): allows GST-Spir-2-GTBM-SB-FYVE to pull Rab11a-Q70L
- pulldown of Rab11a-Q70L in words ([10]; without MyoVa-GTD): does not interact with Rab11a-Q70L; also recorded: does not pull down Rab11a-Q70L
